One block for each binder: values may come before it.
Target: Human eotaxin (human, UniProt P51671 24-97)
Assay: cell-based or functional assay

IC50, inhibition of eotaxin-induced Ca^2+ flux in CCR3 cells (area under the curve, FLIPR): 5 nM
IC50, inhibition of eotaxin-mediated chemotaxis of CCR3 transfected L1.2 cells: 0.65 nM
B1: CAT-212 (scFv, part only; not given: scFv linker and myc/His tag, V domains shown, not shown: another chain or arm of the molecule; small tags and cut ends)
VH: QVQLVQSGGGVVQPGRSLRLSCAASGFTFSSYGMHWVRQAPGKGLEWVAVISYDGSIKHYADSVKGRFTISRDNSKNTLYLQMNSLRTDDTAVYYCAGDTDYGDIDPWGQGTMVTVSS
VL: DIQMTQSPSSVSASVGDRVTITCRASQDISSWLAWYQQKPGKAPKLLIYAASSLQSGVPSRFSGSGSGTDFTLTISSLQPEDFATYYCQQASSFPSITFGQGTRLEIK

IC50, inhibition of eotaxin-mediated chemotaxis of CCR3 transfected L1.2 cells: 0.7 nM
geometric mean IC50, inhibition of eotaxin-evoked shape change of human eosinophils (forward scatter): 0.714 nM
B2: CAT-213 (antibody, human IgG4, V domains shown)
VH: B1 VH
VL: DIQMTQSPSSVSASVGDRVTITCRASQDISSWLAWYQQKPGKAPKLLIYAASSLQSGVPSRFSGSGSGTDFTLTISSLQPEDFATYYCQQASSFPSITFGQGTRLEIKR
